Values quoted from earlier work as cited in article PMC10044870.

Molecular target: cleaved high molecular weight kininogen (HKa) (Homo sapiens) (UniProt P01042)
Sequence (P01042 19-380, chain 1 of 2): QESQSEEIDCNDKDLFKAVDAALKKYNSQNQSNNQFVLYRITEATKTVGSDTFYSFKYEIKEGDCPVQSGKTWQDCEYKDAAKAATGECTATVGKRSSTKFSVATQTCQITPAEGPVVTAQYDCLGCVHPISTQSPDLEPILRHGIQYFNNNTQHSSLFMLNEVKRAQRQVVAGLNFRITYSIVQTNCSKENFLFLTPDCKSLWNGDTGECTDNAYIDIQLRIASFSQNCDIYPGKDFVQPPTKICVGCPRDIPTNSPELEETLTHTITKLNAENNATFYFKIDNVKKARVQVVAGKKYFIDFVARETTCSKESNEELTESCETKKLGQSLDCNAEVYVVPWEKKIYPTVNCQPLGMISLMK
Sequence (P01042 390-644, chain 2 of 2): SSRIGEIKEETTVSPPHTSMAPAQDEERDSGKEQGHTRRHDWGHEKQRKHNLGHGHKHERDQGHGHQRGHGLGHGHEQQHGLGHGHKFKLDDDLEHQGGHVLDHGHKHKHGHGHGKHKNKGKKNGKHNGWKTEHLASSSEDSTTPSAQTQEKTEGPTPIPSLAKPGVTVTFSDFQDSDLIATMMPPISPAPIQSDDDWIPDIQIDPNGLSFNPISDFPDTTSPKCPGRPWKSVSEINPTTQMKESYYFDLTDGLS

Sequence of ferritin (P02794 2-183): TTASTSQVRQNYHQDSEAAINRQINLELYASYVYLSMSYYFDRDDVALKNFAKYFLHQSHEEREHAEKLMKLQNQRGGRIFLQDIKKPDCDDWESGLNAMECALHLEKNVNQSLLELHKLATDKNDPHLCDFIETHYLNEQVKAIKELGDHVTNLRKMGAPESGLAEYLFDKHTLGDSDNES
Sequence of ferritin (P02792 2-175, further chain): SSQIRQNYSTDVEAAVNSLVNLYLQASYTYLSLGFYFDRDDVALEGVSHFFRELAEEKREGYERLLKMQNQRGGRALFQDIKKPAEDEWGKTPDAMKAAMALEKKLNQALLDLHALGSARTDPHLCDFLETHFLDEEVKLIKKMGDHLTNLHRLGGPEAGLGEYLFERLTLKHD

Kd: 0.013 µM
Substance: ferritin (from UniProt P02794)
